Holding throughout (assay type): cell-based
Experiment [1] has as its target T1, hNav1.7 (Homo sapiens, UniProt Q15858).
T1 construct: the Nav1.7 antibody detected full-length Nav1.7 only in HEK1.7 cells
Put plainly: Whole-cell voltage-clamp of INa1.7 in HEK1.7 cells after plasmid transfection. The settings on record: preliminary data. The protocol: The stable expression of each construct was verified by transfection into HEK293 cells stably expressing human wild-type Nav1.7 (HEK1.7 cells), followed by immunoblots (IB). Representative tests for GFPlinker (GFP), 1.7iPAs (1, 2, 3, 4, 6) were shown (FIG. 1H, I). Initial screening experiments by whole-cell voltage-clamp of INa1.7 in HEK1.7 cells, transfected with plasmids encoding nine 1.7iPAs (1.7iPA1-9), were performed to characterize the INa1.7. The presence of 9 different 1.7iPAs in HEK1.7 cells on peak INa1.7 density (3 days after transfection) were summarized in FIG. 1F, in which the data points recorded by at least 2 replicates were combined. […] These experiments thus identified 1.7iPA1 and 1.7iPA4 (both derived from ICL1), as well as 1.7iPA6 (from ICL2), as effective iPAs (>50% INa1.7 inhibition). We next focused on the validation of INa1.7 inhibition and channel kinetics by 1.7iPA1, 4, and 6 on HEK1.7 cells in new experiments. […] The 1.7iPA1 peptide is polyampholytic, enriched with 38.6% positively charged arginine or lysine (17/44), 23% of serine (10/44), 14% acidic residues (6/44); and is highly conserved between rodents and humans (FIG. 2F).
EP recordings were performed, as we described previously with minor modifications at room temperature (22~25° C.) (10, 12), in a blind manner where the electrophysiologist was not aware of the treatment. Patch pipettes 0.9-2.5M2 resistance were formed from borosilicate glass (King Precision Glass Co., Claremont, CA) and fire polished. Recordings were made with an […] amplifier (Molecular Devices, Downingtown, PA). Signals were filtered at 5 kHz and sampled at 20 and 50 kHz (adopted from literature) (13-22) with a Digidata 1440A digitizer and pClamp10 software (Molecular Devices, San Jose, CA). Series resistance (3-5M (2) was monitored before and after the recordings, and data were discarded if the resistance changed by 20%. After achieving the whole-cell recording, capacitance (Cm) and series resistance (Rs) were compensated accordingly.
Sodium channel current (INa) recording in cultured cell lines. Whole-cell voltage-clamp to recording INa was performed in HEK1.7, HEK1.1, HEK1.3, HEK1.6, HEK1.5, HEK1.8, CHO1.8, NG108-15 cells, and F11cells in current-density (I-V) and fast-inactivation voltage protocols. External solution consists of the following (in mM): 110 NaCl, 20 tetraethylammonium-Cl, […]), 0.1 CaCl2, 5 MgCl2, 10 HEPES and 5.56 mM glucose (pH 7.4, 310-315 mosM/L). The internal pipette solution consisted of (in mM): 10 NaCl, 130 CsCl, 5 MgCl2, 5 EGTA, 2.5 Na2+ATP and 10 HEPES (pH 7.2). After formation of a tight seal (maximal leak amplitude <150 pA), membrane resistance and capacitance were determined. The voltage dependence of activation was assessed from holding potential using 50 ms pulses (test-pulse) to a range of test potentials from −100 mV to +50 mV in 5 mV or 10 mV incremental steps with an interval of 5 s. Current density was calculated by normalizing maximal peak currents with cell capacitance. The voltage dependence of steady-state fast inactivation was measured using a two-step protocol. A 500 ms pre-pulse with various potentials ranging from Vhold to +10 mV in 5 or 10 mV incremental steps was used to inactivate the channels. This pre-pulse was immediately followed by a 40 ms test-pulse at 0 mV to determine the remaining fraction of available channels. Inward current measured during the test-pulse to 0 mV was normalized to the cell's maximum test-pulse inward current. To determine the conductance-voltage (I-V) relationships of voltage-dependent activation, the peak current densities during each voltage command step were fitted to a smooth curve with a Boltzmann equation: I=Gmax (V-Erev)/[(1+exp [(V−V50)/k))], which provided the maximum conductance (Gmax). Normalized activation curves were fitted with a Boltzmann equation G/Gmax=1/(1+exp (V50-Vm)/k), where G was calculated as follows: G=I/(Vm−Erev). […]

Experiment [2] has as its target T2, human Nav1.8 (Homo sapiens, UniProt Q9Y5Y9, DEL1030-1030/M1713V).
T2 construct: cell line made in house
Put plainly: Whole-cell voltage-clamp of INa1.8 in HEK1.8 stable cells. The settings on record: preliminary data, expression in HEK1.8 cells.

Experiment [3] concerns BK potassium channels. Put plainly: BK IKv recording in NG108-15 cells.

T1 sequence (Q15858 whole entry): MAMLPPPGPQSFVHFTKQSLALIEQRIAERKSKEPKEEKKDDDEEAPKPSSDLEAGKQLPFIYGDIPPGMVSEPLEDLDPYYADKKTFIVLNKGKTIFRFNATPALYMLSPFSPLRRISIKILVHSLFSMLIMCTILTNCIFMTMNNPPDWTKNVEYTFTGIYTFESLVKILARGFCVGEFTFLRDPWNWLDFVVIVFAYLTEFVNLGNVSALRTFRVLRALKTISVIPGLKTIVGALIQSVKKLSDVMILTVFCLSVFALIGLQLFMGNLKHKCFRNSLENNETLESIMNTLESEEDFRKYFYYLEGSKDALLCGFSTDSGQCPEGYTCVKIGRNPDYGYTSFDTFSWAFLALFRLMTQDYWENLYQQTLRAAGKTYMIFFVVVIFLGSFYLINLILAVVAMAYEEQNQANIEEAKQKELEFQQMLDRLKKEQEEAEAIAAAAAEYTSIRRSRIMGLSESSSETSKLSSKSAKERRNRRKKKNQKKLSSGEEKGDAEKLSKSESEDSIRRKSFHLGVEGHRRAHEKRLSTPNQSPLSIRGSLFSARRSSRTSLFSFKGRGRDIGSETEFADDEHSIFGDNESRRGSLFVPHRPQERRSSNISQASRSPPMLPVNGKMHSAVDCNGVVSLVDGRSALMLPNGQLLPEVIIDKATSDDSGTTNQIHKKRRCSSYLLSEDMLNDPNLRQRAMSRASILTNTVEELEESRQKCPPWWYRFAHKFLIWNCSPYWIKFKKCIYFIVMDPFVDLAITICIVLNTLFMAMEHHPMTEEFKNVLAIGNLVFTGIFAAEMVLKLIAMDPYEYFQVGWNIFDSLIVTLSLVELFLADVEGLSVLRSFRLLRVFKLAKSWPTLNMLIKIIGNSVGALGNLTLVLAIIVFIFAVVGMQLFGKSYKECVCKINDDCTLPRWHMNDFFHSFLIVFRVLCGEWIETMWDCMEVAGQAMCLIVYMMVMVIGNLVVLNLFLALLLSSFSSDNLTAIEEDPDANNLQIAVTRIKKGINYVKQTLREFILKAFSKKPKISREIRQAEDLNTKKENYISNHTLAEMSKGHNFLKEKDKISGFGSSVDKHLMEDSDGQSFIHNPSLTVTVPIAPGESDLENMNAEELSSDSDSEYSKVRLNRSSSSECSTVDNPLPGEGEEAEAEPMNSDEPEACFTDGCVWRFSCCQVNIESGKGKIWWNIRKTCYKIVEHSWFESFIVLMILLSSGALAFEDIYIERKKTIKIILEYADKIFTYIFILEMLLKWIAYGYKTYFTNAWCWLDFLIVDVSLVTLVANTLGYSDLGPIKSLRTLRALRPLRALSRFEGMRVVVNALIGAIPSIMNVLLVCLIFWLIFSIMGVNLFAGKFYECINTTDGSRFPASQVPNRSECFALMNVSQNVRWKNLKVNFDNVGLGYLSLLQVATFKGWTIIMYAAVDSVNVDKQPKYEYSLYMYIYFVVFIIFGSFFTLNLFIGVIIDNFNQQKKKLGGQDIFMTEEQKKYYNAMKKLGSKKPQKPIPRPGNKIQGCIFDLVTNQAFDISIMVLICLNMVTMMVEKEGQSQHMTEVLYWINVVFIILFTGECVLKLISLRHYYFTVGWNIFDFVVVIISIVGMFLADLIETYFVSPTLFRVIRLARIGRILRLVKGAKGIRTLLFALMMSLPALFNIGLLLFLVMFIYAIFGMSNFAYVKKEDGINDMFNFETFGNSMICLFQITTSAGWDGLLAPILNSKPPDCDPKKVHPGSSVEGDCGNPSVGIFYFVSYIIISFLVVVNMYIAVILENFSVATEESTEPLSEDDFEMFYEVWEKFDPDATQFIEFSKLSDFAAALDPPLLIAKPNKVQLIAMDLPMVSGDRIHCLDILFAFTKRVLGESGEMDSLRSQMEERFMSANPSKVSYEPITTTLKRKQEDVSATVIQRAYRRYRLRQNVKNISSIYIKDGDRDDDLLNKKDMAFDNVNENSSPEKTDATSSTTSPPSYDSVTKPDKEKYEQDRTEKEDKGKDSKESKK
T2 sequence (Q9Y5Y9 with tags, fused parts or gaps DEL1030-1030/M1713V): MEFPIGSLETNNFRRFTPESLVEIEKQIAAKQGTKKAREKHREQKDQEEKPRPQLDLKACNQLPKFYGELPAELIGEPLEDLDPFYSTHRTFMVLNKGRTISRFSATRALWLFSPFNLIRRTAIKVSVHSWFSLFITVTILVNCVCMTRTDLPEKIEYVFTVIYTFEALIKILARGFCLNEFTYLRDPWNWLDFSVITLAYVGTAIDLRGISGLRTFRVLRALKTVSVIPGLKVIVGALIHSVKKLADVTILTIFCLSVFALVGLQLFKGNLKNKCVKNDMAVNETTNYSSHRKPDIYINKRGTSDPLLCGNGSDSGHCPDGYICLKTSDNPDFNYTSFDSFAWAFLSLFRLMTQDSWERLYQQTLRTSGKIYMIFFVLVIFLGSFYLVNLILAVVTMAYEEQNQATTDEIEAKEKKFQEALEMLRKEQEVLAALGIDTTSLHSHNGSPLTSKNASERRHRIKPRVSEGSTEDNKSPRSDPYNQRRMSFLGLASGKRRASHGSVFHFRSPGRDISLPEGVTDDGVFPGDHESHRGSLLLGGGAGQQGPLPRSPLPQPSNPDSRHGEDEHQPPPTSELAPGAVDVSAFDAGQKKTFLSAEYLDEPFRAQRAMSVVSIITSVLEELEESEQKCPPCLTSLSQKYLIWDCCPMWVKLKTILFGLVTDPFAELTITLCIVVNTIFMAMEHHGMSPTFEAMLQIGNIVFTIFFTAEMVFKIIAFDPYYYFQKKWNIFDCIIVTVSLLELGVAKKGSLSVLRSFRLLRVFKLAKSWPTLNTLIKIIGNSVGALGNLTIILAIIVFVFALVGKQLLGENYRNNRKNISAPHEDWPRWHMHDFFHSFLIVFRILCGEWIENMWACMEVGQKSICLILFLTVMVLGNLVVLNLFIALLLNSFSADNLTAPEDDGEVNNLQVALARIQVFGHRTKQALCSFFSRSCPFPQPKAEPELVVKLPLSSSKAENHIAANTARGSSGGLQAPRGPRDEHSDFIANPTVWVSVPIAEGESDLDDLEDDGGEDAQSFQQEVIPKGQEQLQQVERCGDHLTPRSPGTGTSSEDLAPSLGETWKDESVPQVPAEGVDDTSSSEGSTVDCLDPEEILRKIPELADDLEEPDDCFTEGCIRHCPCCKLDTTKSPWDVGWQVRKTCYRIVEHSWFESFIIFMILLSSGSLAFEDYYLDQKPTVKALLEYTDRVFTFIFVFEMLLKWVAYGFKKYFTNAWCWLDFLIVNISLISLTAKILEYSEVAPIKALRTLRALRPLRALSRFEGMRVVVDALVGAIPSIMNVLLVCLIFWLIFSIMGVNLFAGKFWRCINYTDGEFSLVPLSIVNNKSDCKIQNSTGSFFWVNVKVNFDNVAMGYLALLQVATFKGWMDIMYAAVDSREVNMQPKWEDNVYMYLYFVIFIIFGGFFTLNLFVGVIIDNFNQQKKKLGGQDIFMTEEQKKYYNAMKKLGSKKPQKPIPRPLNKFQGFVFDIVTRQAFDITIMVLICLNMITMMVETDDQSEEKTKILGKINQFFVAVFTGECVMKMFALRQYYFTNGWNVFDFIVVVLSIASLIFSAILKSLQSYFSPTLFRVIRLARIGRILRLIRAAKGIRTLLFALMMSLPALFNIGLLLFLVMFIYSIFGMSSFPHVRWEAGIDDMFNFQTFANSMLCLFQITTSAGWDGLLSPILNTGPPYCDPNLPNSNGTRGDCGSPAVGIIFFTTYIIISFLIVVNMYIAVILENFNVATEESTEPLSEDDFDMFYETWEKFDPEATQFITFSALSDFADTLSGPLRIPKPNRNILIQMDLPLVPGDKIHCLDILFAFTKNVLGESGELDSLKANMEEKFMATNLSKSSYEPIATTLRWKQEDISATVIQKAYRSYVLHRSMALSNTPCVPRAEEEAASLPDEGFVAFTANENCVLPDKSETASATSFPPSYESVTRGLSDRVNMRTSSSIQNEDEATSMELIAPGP

As to “1.7/1.8iPA: disordered polyacidic 38mer from Nav1.7 intracellular loop 2 with AnkG and Pdzd2-I binding domains; dual Nav1.7/1.8 inhibitory peptide aptamer (PGESDLEIMNTEELSSDSDSDYSKEKRNRSSSSECSTV)”, in experiment [1] (38mer expressed in HEK1.7 cells), the “effect on INa1.7” value is “inhibits”. For the same substance, the Nav1.7 voltage-gated activation entry in experiment [1] (HEK1.7 cells) is listed as “possibly desensitized”. Moreover, in experiment [2], the “effect on INa1.8” value is on record as “suppresses”. Also, in experiment [3], the “effect on BK IKv” value is given as “No change”.

The values are drawn from patent US20260258110A1, “VOLTAGE GATED SODIUM CHANNEL-SPECIFIC PEPTIDE APTAMERS AND USES THEREOF” (The Medical College of Wisconsin, Inc., priority 2023, published 2026).
